Experimental data: the Immune Epitope Database (IEDB)

Tests used:
HLA-B*45:06 = assay: IEDB peptide-MHC binding, purified MHC/competitive/fluorescence; filed as Kd, often an IC50 or EC50 that approximates it; ≥ and ≤ were set here for values at or beyond the usual limits of such assays
HLA-C*04:01 [1] = assay: as above; conditions: source organism: Salmonella enterica subsp. enterica serovar Typhi
HLA-B*40:01 [2] = assay: as above; conditions: source organism: Salmonella enterica subsp. enterica serovar Typhi
HLA-B*83:01 = assay: as above
HLA-B*15:42 = assay: as above
HLA-C*06:02 = assay: IEDB peptide-MHC binding, purified MHC/direct/fluorescence; filed as Kd, often an IC50 or EC50 that approximates it; ≥ and ≤ were set here for values at or beyond the usual limits of such assays
HLA-C*04:01 [3] = assay: as above
HLA-A*24:03 = assay: as above; conditions: source organism: Mammarenavirus lassaense
HLA-A*69:01 = assay: as above
HLA-B*27:05 [4] = assay: as above
HLA-A*02:01 [5] = assay: as above
HLA-B*40:01 [6] = assay: as above
HLA-A*26:01 = assay: as above
HLA-B*15:01 [7] = assay: as above; conditions: source organism: Stutzerimonas stutzeri
HLA-A*30:01 = assay: as above; conditions: source organism: Stutzerimonas stutzeri
HLA-B*08:01 = assay: as above
HLA-B*07:02 = assay: as above; conditions: source organism: Stutzerimonas stutzeri
HLA-B*58:01 = assay: as above
HLA-A*31:01 = assay: as above
HLA-A*01:01 = assay: as above
HLA-B*73:01 = assay: IEDB peptide-MHC binding, purified MHC/competitive/fluorescence; filed as Kd, often an IC50 or EC50 that approximates it; ≥ and ≤ were set here for values at or beyond the usual limits of such assays
HLA-B*35:01 = assay: IEDB peptide-MHC binding, cellular MHC/competitive/fluorescence; ≥ and ≤ were set here for values at or beyond the usual limits of such assays; conditions: source organism: Mycobacterium tuberculosis H37Rv
HLA-C*05:01 = assay: IEDB peptide-MHC binding, purified MHC/direct/fluorescence; filed as Kd, often an IC50 or EC50 that approximates it; ≥ and ≤ were set here for values at or beyond the usual limits of such assays; conditions: source organism: Shewanella sp. W3-18-1
HLA-A*32:07 = assay: IEDB peptide-MHC binding, purified MHC/competitive/fluorescence; filed as Kd, often an IC50 or EC50 that approximates it; ≥ and ≤ were set here for values at or beyond the usual limits of such assays; conditions: source organism: Shewanella sp. W3-18-1
HLA-A*32:15 = assay: as above; conditions: source organism: Shewanella sp. W3-18-1
HLA-C*07:02 = assay: IEDB peptide-MHC binding, purified MHC/direct/fluorescence; filed as Kd, often an IC50 or EC50 that approximates it; ≥ and ≤ were set here for values at or beyond the usual limits of such assays; conditions: source organism: Campylobacter jejuni
HLA-A*24:02 = assay: IEDB peptide-MHC binding, purified MHC/competitive/fluorescence; filed as Kd, often an IC50 or EC50 that approximates it; ≥ and ≤ were set here for values at or beyond the usual limits of such assays; conditions: source organism: Campylobacter jejuni
HLA-A*02:01 [8] = assay: IEDB peptide-MHC binding, cellular MHC/competitive/fluorescence; ≥ and ≤ were set here for values at or beyond the usual limits of such assays; conditions: source organism: Mycobacterium tuberculosis
HLA-B*51:01 = assay: IEDB peptide-MHC binding, purified MHC/direct/fluorescence; filed as Kd, often an IC50 or EC50 that approximates it; ≥ and ≤ were set here for values at or beyond the usual limits of such assays; conditions: source organism: Mycobacterium tuberculosis
HLA-B*18:01 = assay: as above; conditions: source organism: Mycobacterium tuberculosis
HLA-A*03:01 = assay: as above; conditions: source organism: Mycobacterium tuberculosis
HLA-B*48:01 = assay: as above; conditions: source organism: Mycobacterium tuberculosis
HLA-B*08:02 = assay: as above; conditions: source organism: Mycobacterium tuberculosis str. Haarlem
HLA-B*46:01 = assay: as above; conditions: source organism: Mycobacterium tuberculosis
HLA-B*15:09 = assay: as above; conditions: source organism: Mycobacterium tuberculosis str. Haarlem
HLA-B*15:17 = assay: as above; conditions: source organism: Mycobacterium tuberculosis
HLA-B*57:01 = assay: as above; conditions: source organism: Mycobacterium tuberculosis
HLA-B*39:01 = assay: as above; conditions: source organism: Mycobacterium tuberculosis str. Haarlem
HLA-A*11:01 = assay: as above; conditions: source organism: Mycobacterium tuberculosis
HLA-B*38:01 = assay: as above; conditions: source organism: Mycobacterium tuberculosis str. Haarlem
HLA-B*15:01 [9] = assay: IEDB peptide-MHC binding, purified MHC/competitive/fluorescence; filed as Kd, often an IC50 or EC50 that approximates it; ≥ and ≤ were set here for values at or beyond the usual limits of such assays; conditions: source organism: Mycobacterium tuberculosis variant bovis BCG str. Pasteur 1173P2
HLA-B*27:05 [10] = assay: as above; conditions: source organism: Influenza A virus (A/Waikato/7/2000(H3N2))
[11] = source organism: Salmonella enterica subsp. enterica serovar Typhi
[12] = source organism: Stutzerimonas stutzeri
[13] = source organism: Salmonella enterica subsp. enterica serovar Typhimurium
[14] = source organism: Shewanella sp. W3-18-1
[15] = source organism: Mycobacterium tuberculosis
[16] = source organism: Mycobacterium tuberculosis str. Haarlem
[17] = source organism: Mycobacterium tuberculosis variant bovis BCG str. Pasteur 1173P2

**Q.** How did the Kd (HLA-B*45:06; [11]) turn out when AEFVFSCGI was run?
**A.** Its Kd is ≥ 5 µM.

**Q.** And the Kd (HLA-C*04:01 [1])?
**A.** The Kd was ≥ 5 µM.

**Q.** And the Kd (HLA-B*40:01 [2])?
**A.** Its Kd is 8.4 nM.

**Q.** What about the Kd (HLA-B*83:01; [11]) of the same sequence?
**A.** Its Kd is ≥ 5000 nM.

**Q.** What about the Kd (HLA-B*15:42; [11]) of the same sequence?
**A.** Its Kd is ≥ 5 µM.

**Q.** CRRLNTKYL was tested. Which Kd (HLA-C*06:02; source organism: Aquifex aeolicus VF5) did it give?
**A.** The Kd was 173 nM.

**Q.** FYADPKRYF was tested. Which Kd (HLA-C*04:01 [3]; source organism: Mammarenavirus lassaense) did it give?
**A.** Its Kd is ≥ 20 µM.

**Q.** And the Kd (HLA-A*24:03)?
**A.** The Kd was 8 nM.

**Q.** For GRGQILLGK, which Kd (HLA-A*69:01; [12]) is on record?
**A.** Its Kd is ≥ 20 µM.

**Q.** And the Kd (HLA-B*27:05 [4]; [12])?
**A.** The Kd was 321 nM.

**Q.** What about the Kd (HLA-A*02:01 [5]; [12]) of the same sequence?
**A.** The Kd was 5.95 µM.

**Q.** And the Kd (HLA-B*40:01 [6]; [12])?
**A.** Its Kd is ≥ 20 µM.

**Q.** What about the Kd (HLA-A*26:01; [12]) of the same sequence?
**A.** Its Kd is ≥ 20 µM.

**Q.** And the Kd (HLA-B*15:01 [7])?
**A.** The Kd was ≥ 20 µM.

**Q.** What about the Kd (HLA-A*30:01) of the same sequence?
**A.** Its Kd is ≥ 5 µM.

**Q.** What about the Kd (HLA-B*08:01; [12]) of the same sequence?
**A.** The Kd was ≥ 20000 nM.

**Q.** What about the Kd (HLA-B*07:02) of the same sequence?
**A.** The Kd was ≥ 20 µM.

**Q.** And the Kd (HLA-B*58:01; [12])?
**A.** Its Kd is ≥ 20 µM.

**Q.** And the Kd (HLA-A*31:01; [12])?
**A.** The Kd was ≥ 20 µM.

**Q.** And the Kd (HLA-A*01:01; [12])?
**A.** The Kd was ≥ 20 µM.

**Q.** What about the Kd (HLA-B*73:01; [12]) of the same sequence?
**A.** Its Kd is ≥ 20000 nM.

**Q.** IPAEFLENF was tested. Which IC50 (HLA-B*35:01) did it give?
**A.** Its IC50 is 1 µM.

**Q.** For IPAKFLEGL, which IC50 (HLA-B*35:01) is on record?
**A.** The IC50 was 7.1 µM.

**Q.** Which results are given for LMMSSPPPI?
**A.** Kd (HLA-A*69:01; [13]): 0.174 µM; Kd (HLA-A*02:01 [5]; [13]): 0.0123 µM; Kd (HLA-C*05:01): ≥ 20 µM; Kd (HLA-A*32:07): 50.8 nM; Kd (HLA-B*45:06; [14]): ≥ 5 µM; Kd (HLA-B*83:01; [14]): ≥ 5000 nM; Kd (HLA-B*15:42; [14]): ≥ 5 µM; Kd (HLA-A*32:15): 137 nM

**Q.** For LYSRSFWFF, which Kd (HLA-C*04:01 [3]; source organism: Campylobacter jejuni) is on record?
**A.** The Kd was ≥ 20 µM.

**Q.** And the Kd (HLA-C*07:02)?
**A.** The Kd was 206 nM.

**Q.** What about the Kd (HLA-A*24:02) of the same sequence?
**A.** Its Kd is ≤ 0.1 nM.

**Q.** NLLVTGFDT was tested. Which IC50 (HLA-A*02:01 [8]) did it give?
**A.** The IC50 was 2400 nM.

**Q.** For RPRRASSPF, which Kd (HLA-A*69:01; [15]) is on record?
**A.** The Kd was ≥ 20 µM.

**Q.** And the Kd (HLA-B*51:01)?
**A.** The Kd was ≥ 20 µM.

**Q.** And the Kd (HLA-B*27:05 [4]; [15])?
**A.** Its Kd is ≥ 20000 nM.

**Q.** And the Kd (HLA-B*18:01)?
**A.** The Kd was 9.95 µM.

**Q.** And the Kd (HLA-A*02:01 [5]; [15])?
**A.** Its Kd is ≥ 20 µM.

**Q.** And the Kd (HLA-A*03:01)?
**A.** Its Kd is ≥ 20 µM.

**Q.** And the Kd (HLA-B*48:01)?
**A.** Its Kd is ≥ 20 µM.

**Q.** What about the Kd (HLA-B*40:01 [6]; [15]) of the same sequence?
**A.** The Kd was ≥ 20 µM.

**Q.** What about the Kd (HLA-B*08:02) of the same sequence?
**A.** Its Kd is 9.48 µM.

**Q.** And the Kd (HLA-A*26:01; [16])?
**A.** The Kd was ≥ 20 µM.

**Q.** What about the Kd (HLA-B*46:01) of the same sequence?
**A.** The Kd was ≥ 20 µM.

**Q.** What about the Kd (HLA-B*15:09) of the same sequence?
**A.** The Kd was ≥ 20 µM.

**Q.** And the Kd (HLA-B*15:17)?
**A.** Its Kd is 273 nM.

**Q.** What about the Kd (HLA-B*57:01) of the same sequence?
**A.** Its Kd is ≥ 20 µM.

**Q.** What about the Kd (HLA-B*39:01) of the same sequence?
**A.** The Kd was ≥ 20 µM.

**Q.** What about the Kd (HLA-A*11:01) of the same sequence?
**A.** The Kd was ≥ 20 µM.

**Q.** And the Kd (HLA-B*08:01; [16])?
**A.** Its Kd is 36 nM.

**Q.** What about the Kd (HLA-B*38:01) of the same sequence?
**A.** Its Kd is ≥ 20 µM.

**Q.** And the Kd (HLA-B*58:01; [15])?
**A.** Its Kd is ≥ 20 µM.

**Q.** And the Kd (HLA-A*31:01; [15])?
**A.** The Kd was ≥ 20 µM.

**Q.** And the Kd (HLA-A*01:01; [15])?
**A.** Its Kd is ≥ 20 µM.

**Q.** What about the Kd (HLA-B*45:06; [17]) of the same sequence?
**A.** The Kd was ≥ 5 µM.

**Q.** And the Kd (HLA-B*83:01; [17])?
**A.** The Kd was 109 nM.

**Q.** What about the Kd (HLA-B*15:42; [17]) of the same sequence?
**A.** Its Kd is ≥ 5 µM.

**Q.** What about the Kd (HLA-B*15:01 [9]) of the same sequence?
**A.** Its Kd is 288 nM.

**Q.** With SRFLRRPAQ as the sequence, how does the Kd (HLA-B*73:01; source organism: Burkholderia vietnamiensis G4) read?
**A.** The Kd was 670 nM.

**Q.** With TIPEALAAV as the sequence, how does the IC50 (HLA-A*02:01 [8]) read?
**A.** Its IC50 is 2800 nM.

**Q.** With YRTLLMNEL as the sequence, how does the Kd (HLA-C*06:02; source organism: Influenza A virus (A/Waikato/7/2000(H3N2))) read?
**A.** Its Kd is 9 nM.

**Q.** And the Kd (HLA-B*27:05 [10])?
**A.** The Kd was 53.9 nM.
